The record followed here is paper PMC9679424, “The CARD8 T60 variant associates with NLRP1 and negatively regulates its activation” (Frontiers in Immunology, 2022).

For this assay, the target named is T1, NLRP1-FLAG (human, UniProt Q9C000-1 1-1473).
T1 construct: NLRP1, human, UniProt Q9C000-1, full length; The host of the purified protein is told only as a mammalian expression system; also called full-length NLRP1; Flag-tagged NLRP1; source: HEK 293T, transiently transfected, in lysate; also purified using mammalian protein expression system
T1 sequence (looked up): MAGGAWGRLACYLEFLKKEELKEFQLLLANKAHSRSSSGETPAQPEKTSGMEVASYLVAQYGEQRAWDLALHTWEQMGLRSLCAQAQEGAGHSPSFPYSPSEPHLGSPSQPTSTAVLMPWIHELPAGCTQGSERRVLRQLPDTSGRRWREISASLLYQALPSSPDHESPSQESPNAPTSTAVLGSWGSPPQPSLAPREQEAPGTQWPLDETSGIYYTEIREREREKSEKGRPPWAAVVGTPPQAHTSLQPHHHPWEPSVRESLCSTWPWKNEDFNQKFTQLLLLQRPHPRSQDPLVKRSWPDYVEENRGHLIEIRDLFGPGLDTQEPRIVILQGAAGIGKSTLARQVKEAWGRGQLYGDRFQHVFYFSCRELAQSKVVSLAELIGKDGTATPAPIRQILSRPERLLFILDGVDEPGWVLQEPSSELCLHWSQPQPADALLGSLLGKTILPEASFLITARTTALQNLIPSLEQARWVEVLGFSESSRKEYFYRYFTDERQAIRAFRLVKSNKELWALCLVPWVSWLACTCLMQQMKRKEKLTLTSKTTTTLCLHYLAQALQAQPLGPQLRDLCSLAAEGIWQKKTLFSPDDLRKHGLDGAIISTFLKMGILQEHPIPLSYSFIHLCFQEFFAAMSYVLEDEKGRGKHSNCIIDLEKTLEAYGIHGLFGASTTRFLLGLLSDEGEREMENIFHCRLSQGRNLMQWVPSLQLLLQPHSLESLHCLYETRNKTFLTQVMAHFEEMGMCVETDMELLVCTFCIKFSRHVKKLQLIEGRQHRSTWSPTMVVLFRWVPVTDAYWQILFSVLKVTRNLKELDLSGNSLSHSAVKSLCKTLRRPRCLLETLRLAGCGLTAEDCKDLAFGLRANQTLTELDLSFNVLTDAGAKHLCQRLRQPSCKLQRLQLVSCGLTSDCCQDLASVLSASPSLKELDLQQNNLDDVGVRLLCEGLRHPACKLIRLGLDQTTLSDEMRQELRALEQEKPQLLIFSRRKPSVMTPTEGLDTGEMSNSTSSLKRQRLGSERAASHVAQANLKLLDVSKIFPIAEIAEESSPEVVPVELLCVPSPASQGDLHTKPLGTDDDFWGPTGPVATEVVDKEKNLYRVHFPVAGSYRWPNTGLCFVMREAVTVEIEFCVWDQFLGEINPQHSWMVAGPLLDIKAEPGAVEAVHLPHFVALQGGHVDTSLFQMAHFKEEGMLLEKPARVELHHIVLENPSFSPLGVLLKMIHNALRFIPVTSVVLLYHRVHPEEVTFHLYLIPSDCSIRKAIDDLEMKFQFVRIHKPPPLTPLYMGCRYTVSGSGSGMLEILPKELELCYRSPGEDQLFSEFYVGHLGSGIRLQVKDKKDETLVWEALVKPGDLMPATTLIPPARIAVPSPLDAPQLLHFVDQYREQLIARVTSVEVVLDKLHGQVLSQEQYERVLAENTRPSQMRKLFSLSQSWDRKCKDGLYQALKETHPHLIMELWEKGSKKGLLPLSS
The experiment in a line: co-IP; HEK 293T cells transiently co-transfected, 28 hours; lysate (20 mM Tris-HCl pH 7.5, 100 mM KCl, 5 mM MgCl2, 0.3% NP-40); precipitation by the Strep tag of CARD8-T60-Strep (anti-Strep; Strep-Tactin gel) overnight at 4 °C; immunoblotting. The settings on record: partners not purified. (In general: A western blot detects proteins with antibodies after separation by electrophoresis.)

B1: CARD8-T60-Strep (natural protein, human, UniProt Q9Y2G2-5 1-537, looked up)
chain: MEKKECPEKSSSSEEELPRRDSGSSRNIDASKLIRLQGSRKLLVDNSIRELQYTKTGIFFQAEACVTNDTVYRELPCVSETLCDISHFFQEDDETEAEPLLFRAVPECQLSGGDIPSVSEEQESSEGQDSGDICSEENQIVSSYASKVCFEIEEDYKNRQFLGPEGNVDVELIDKSTNRYSVWFPTAGWYLWSATGLGFLVRDEVTVTIAFGSWSQHLALDLQHHEQWLVGGPLFDVTAEPEEAVAEIHLPHFISLQAGEVDVSWFLVAHFKNEGMVLEHPARVEPFYAVLESPSFSLMGILLRIASGTRLSIPITSNTLIYYHPHPEDIKFHLYLVPSDALLTKAIDDEEDRFHGVRLQTSPPMEPLNFGSSYIVSNSANLKVMPKELKLSYRSPGEIQHFSKFYAGQMKEPIQLEITEKRHGTLVWDTEVKPVDLQLVAASAPPPFSGAAFVKENHRQLQARMGDLKGVLDDLQDNEVLTENEKELVEQEKTRQSKNEALLSMVEKKGDLALDVLFRSISERDPYLVSYLRQQNL
notes: CARD8, T60 isoform, human, UniProt Q9Y2G2-5, full length; The host of the purified protein is told only as a mammalian expression system; also called CARD8-Strep; T60 isoform of CARD8; source: HEK 293T, transiently transfected, in lysate; also purified using mammalian protein expression system
Consider B1, for which the binding result is “binds”.
